Assay [1] addresses recombinant mesothelin expressed on human epidermoid epithelial A431 cells (human) (UniProt Q13421).
Assay [2] has the same target. This is another data set of the same source.
The target in assay [3] is recombinant mesothelin tagged with the Fc fragment of rabbit IgG (human) (UniProt Q13421). The assay is described as follows: flow cytometry on cells; inhibition: soluble MUC16 pre-incubated with meso-Fc (25 nM) for 1 h at 4°C; read out as meso-Fc left to bind OVCAR-3 cells. On the technique in general: A flow cytometer gives signals particle by particle.
recombinant mesothelin tagged with the Fc fragment of rabbit IgG (human), sequence (Q13421 other isoform, or with tags, fused parts or gaps): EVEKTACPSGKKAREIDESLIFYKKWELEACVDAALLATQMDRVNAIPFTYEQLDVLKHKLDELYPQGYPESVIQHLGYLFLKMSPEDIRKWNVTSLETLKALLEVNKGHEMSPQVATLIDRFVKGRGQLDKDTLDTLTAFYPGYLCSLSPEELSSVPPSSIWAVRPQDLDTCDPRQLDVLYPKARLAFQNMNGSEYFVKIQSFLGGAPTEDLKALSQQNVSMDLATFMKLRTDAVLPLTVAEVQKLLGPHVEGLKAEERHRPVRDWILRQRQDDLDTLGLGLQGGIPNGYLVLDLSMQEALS

recombinant mesothelin expressed on human epidermoid epithelial A431 cells (human), sequence (Q13421 other isoform, or with tags, fused parts or gaps): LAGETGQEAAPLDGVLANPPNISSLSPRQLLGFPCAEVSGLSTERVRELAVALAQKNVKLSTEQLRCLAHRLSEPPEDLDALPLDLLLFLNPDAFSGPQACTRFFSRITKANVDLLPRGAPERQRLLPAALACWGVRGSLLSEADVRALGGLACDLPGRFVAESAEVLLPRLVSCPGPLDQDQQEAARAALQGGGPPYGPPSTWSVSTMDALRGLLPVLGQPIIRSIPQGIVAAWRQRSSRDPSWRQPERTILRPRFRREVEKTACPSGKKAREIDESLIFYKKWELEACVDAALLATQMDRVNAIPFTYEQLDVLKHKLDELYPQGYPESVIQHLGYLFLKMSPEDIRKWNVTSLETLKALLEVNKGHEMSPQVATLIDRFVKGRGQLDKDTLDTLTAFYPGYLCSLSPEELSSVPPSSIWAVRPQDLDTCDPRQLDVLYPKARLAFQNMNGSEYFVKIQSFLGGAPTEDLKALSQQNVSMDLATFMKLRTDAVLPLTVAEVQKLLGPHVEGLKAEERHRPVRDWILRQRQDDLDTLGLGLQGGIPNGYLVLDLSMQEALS

Regarding “MUC16 expressed on the surface of the ovarian tumor cell line OVCAR-3, Q8WXI7 1-14507”, in assay [1], the heterotypic doublets between MUC16 positive #12 cells and A431-Meso+ cells in PBS with 1% BSA, percent of total live cells, flow cytometry was determined as 25%. Moreover, the reduction of heterotypic cell adhesion between #12 and A431-Meso+ cells by ascites of EOC patients (#15 and #24), flow cytometry in assay [2] was found to be 33%.

With “native MUC16 partially purified from OVCAR-3 cell culture media, Q8WXI7 1-14451”, the percent inhibition of meso-Fc binding to OVCAR-3 cells (MUC16 at half the molar amount of meso-Fc) in assay [3] is 80%.

For the origin of these results see article PMC1635730.
